Experimental data as given in US20060286117A1, “Neuronally expressed stem cell factor modulates angiogenesis and neural stem cell migration to areas of brain injury” (priority 2003, published 2006).
Entries after “also recorded” stand apart in the source; their conditions may differ. Each block holds one molecule with its values, some of them ahead of it.

Key:
[1] = tested on: SCID mice; test: In vivo angiogenesis assay, subcutaneous Matrigel plugs with SCF or β-FGF; parameters: species or system mouse; settings: subcutaneous Matrigel in adult SCID mice, fourteen days after injection
Experimental: Confluent-grown ECs were treated with 50 ng/ml of SCF for 5, 10, 15, and 30 min after 24 hr of serum starvation. The ECs were collected with RIPA lysis buffer (Upstate, Charlottesville, Va.) containing 50 mM NaF, 1 mM Na3VO4, […], and Protease Inhibitor Cocktail (Roche). The antibodies were purchased from Cell Signaling Technology, Inc. (Beverly, Mass.) or as mentioned otherwise. All the primary antibodies were used in a 1:1000 dilution except for the anti-SCF antibody, which was used in a 1:2000 dilution. The primary antibodies were anti-phospho-c-Kit, anti-phospho-MEK1/2 and anti-MEK1/2, anti-phospho-p44/42 MAPK and anti-p44/42 MAPK, anti-phospho-SAPK/JNK and anti-SAPK/JNK, anti-phospho-p38 MAPK and anti-p38 MAPK, anti-phospho-Akt and anti-Akt, anti-phospho-mTOR and anti-mTOR, anti-phospho-4E-BP1 and anti-4E-BP1, anti-SCF and anti-VEGF (Chemicon, Temecula, Calif.), and anti-β-tubulin (Sigma). Re-blotting was done after membranes were stripped by re-blot kit (Chemicon). Tie2 detection in Matrigel plugs from the in vivo Matrigel assay was carried out by immunoprecipitation and immunoblotting. The gel plugs were carefully separated from muscle and skin and homogenized with RIPA lysis buffer. The resulting total tissue lysates ([…]) were immunoprecipitated with Tie2 antibody (Santa Cruz Biotechnology, Inc., Santa Cruz, Calif.) and then analyzed by immunoblot with Tie2 antibody (Zadeh et al. 2004 Am J Pathol 162:467-476).
All adult mice (6-8 weeks of age) were from NCI-Fredrick, and the animal experiments were conducted on an animal experimentation protocol approved by the NCI's animal protection committee (the “ACUC”). […]

[2] = target: human c-Kit (SCF receptor) on human cells (NSPCs, HUVEC, HBMEC) (human) (UniProt P10721); test: cell-based or functional assay
[3] = target: mouse c-Kit (SCF receptor) on mouse NSPCs (mouse) (UniProt P05532); test: cell-based or functional assay
mouse c-Kit (SCF receptor) on mouse NSPCs (mouse), sequence (P05532 25-979): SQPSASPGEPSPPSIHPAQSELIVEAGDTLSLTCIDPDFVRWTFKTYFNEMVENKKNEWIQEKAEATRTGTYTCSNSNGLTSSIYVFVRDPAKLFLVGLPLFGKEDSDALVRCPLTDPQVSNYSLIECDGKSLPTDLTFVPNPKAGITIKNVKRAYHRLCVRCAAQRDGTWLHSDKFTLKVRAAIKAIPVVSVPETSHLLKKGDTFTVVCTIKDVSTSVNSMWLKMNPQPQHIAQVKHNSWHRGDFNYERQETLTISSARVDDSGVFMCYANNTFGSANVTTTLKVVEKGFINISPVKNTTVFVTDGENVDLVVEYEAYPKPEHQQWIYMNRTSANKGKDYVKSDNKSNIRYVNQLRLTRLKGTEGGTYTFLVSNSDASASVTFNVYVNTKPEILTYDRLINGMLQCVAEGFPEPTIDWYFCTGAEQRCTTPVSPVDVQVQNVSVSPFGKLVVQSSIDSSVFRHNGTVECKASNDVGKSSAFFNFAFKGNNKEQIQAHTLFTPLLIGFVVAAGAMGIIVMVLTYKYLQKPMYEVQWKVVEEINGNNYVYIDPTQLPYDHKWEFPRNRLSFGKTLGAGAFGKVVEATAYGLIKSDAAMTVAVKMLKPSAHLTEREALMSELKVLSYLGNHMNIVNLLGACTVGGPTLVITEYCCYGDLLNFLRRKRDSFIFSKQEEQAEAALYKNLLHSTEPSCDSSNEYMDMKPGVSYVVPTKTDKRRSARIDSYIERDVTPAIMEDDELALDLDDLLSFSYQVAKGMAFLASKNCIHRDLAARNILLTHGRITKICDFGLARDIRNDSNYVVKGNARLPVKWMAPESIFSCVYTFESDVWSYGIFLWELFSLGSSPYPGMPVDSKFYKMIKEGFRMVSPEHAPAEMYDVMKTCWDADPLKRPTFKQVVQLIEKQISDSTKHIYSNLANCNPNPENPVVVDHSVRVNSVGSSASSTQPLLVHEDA

[4] = tested on: U251 glioma; test: Subcutaneously implanted U251 human glioma growth; format: in vivo, mouse; settings: nude mice
[5] = target: T1, c-Kit (Mus musculus, UniProt P05532); test: c-Kit tyrosine phosphorylation by immunoprecipitation and immunoblot, mouse NSPCs; format: cell-based; settings: 100 ng/ml of rmSCF, 10 min
T1 construct: The 120-kDa and 140-kDa bands represent the c-Kit proteins in the human and mouse NSPCs; endogenous in cells; host or cells: mouse E14 NSPCs (neurospheres)
T1 sequence (P05532 25-979): as above
Experimental: (§1) Injured dorsal forebrains were dissected 24 hours, 3 days, 5 days, 7 days and 12 days after injury and were homogenized in a lysis buffer containing 50 mM Tris-HCl (pH 8.0), 120 mM NaCl, 0.5% Nonidet P-40, and Protease Inhibitor Cocktail (Roche, Indianapolis, Ind., USA). Brain tissue was kept on ice for 30 min and supernatants were collected after centrifugation. The brain lysates were separated by a 4-12% polyacrylamide gel electrophoresis (Invitrogen) and transferred to the membranes. The filters were blotted with rabbit polyclonal anti-SCF antibody (1:50 dilution; Chemicon, Temecula, Calif., USA). The NSPCs were treated or not treated with 100 ng/ml of rmSCF or were left untreated for 10 min and then were washed with ice-cold PBS. Some mouse NSPCs were treated with rat monoclonal c-Kit blocking antibody, (ACK4; PharMingen, San Diego, Calif., USA) for 30 min at room temperature before SCF stimulation. The NSPCs were resuspended in a protease inhibitor mixture containing radioimmunoprecipitation (RIPA) buffer (1% NP-40, 0.5% Sodium deoxycholate, 0.1% SDS, 0.1 mg/ml PMSF, 0.1 mM NaVO4 in PBS). The cell lysates were pre-cleared with protein A-Sepharose (Amersham Pharmacia Biotech, Piscataway, N.J., USA), incubated with rabbit polyclonal antibody to c-Kit (Clone H-300, Santa Cruz, San Diego, Calif., USA), and collected on protein A-Sepharose beads. […]

[6] = target: T2, c-Kit (Homo sapiens, UniProt P10721); test: c-Kit tyrosine phosphorylation by immunoprecipitation and immunoblot, human NSPCs; format: cell-based; settings: 100 ng/ml of rmSCF, 10 min
T2 construct: The 120-kDa and 140-kDa bands represent the c-Kit proteins in the human and mouse NSPCs; endogenous in cells; host or cells: human fetal NSPCs (neurospheres)
Experimental: as §1

[7] = tested on: mouse NSPCs; test: Boyden chamber migration assay, mouse NSPCs; format: cell-based
Experimental: (§2) The effects of SCF on NSPC migration were determined by a modified Boyden chamber assay as described previously (Sun, L. et al. 2001 Cancer Res. 61:4994-5001). A 96-well cell migration kit was utilized (Chemicon, Temecula, Calif., USA) and each well was separated into two chambers by a membrane with 8-μm pores. The cells were briefly trypsinized and adjusted to 4×10^5 cells/ml in 1:20 dilution of B27 medium without growth factors. Some cells were pretreated with a c-Kit-blocking antibody (ACK45, PharMingen, San Diego, Calif., USA) for 30 min at room temperature. Migration of NIH 3T3 cell was also assayed as a control. Recombinant mouse SCF (rmSCF) (R&D systems, Minneapolis, Minn., USA) was dissolved in the same medium and adjusted to the various concentrations. After different concentrations of SCF or brain tissue lysates were added to the lower chamber as attractants, 100 μl of the NSPCs (4×10^4) were applied to the upper chamber on the top of membrane. A group of control chambers without rmSCF was also included. After 4 hours of incubation at 37° C., the migratory cells on the bottom of the insert membrane were dissociated from the membrane by incubation with cell detachment buffer.

[8] = tested on: human NSPCs; test: Boyden chamber migration assay, human NSPCs; format: cell-based
Experimental: as §2

[9] = tested on: NIH 3T3 cells; test: Boyden chamber migration assay, NIH 3T3 negative control cells; format: cell-based; settings: regardless of the concentration used
Experimental: as §2

[10] = tested on: endogenous NSPCs; test: In vivo progenitor cell migration, BrdU labeling and intracerebral rmSCF injection; parameters: species or system mouse
[11] = tested on: SCID mice; test: In vivo angiogenesis assay, matrigel plug with rmSCF (Example 3); parameters: species or system mouse; settings: rmSCF 50 ng/ml, subcutaneous, 7 days, vs PBS control
Experimental: Recombinant mouse SCF (rmSCF) was used at 50 ng/ml in an in vivo angiogenesis assay. The matrigel plug containing SCF or PBS control was placed subcutaneously in SCID mice for 7 days, and the blood vessel formation within the gel was examined by H&E staining. […] In the higher magnification figure on the right side, the red blood cells inside of the newly formed vessel are indicated by an arrow.

[12] = tested on: bMVEC-B cells; test: bMVEC-B DNA synthesis by thymidine incorporation (Example 3); format: cell-based; settings: 72 hours
Experimental: To specifically confirm the pro-angiogenic effects of SCF in the brain, bMVEC-B cells were used. The cells were cultured in the presence of different concentrations of rmSCF (1 ng/ml to 250 ng/ml) or 0.1% BSA only medium for 72 hours. The rate of DNA synthesis was measured by thymidine incorporation.

[13] = rmSCF 3 μg intracerebral, day 7, SCID mice

Molecule: β-FGF: positive control angiogenic growth factor (R&D Systems) [reference compound]
angiogenesis in Matrigel plug (H&E, vWF-positive vessels) [1]: high density of blood vessels; also recorded: induced substantial angiogenesis

Molecule: bevacizumab: VEGF antibody (Genentech), systemically administered
subcutaneous tumor growth [4]: suppressed subcutaneously implanted human glioma growth; also recorded: profound tumor growth suppression

Now from value to molecule, other results behind:

lowest rmSCF concentration with a statistically significant increase in NSPC migration (Boyden chamber) [2]: 10 ng/mL
lowest rmSCF concentration with a statistically significant increase in NSPC migration (Boyden chamber) [3]: 5 ng/mL
Molecule: Recombinant mouse SCF (rmSCF) (from UniProt P20826 26-189) (ligand)

c-Kit tyrosine phosphorylation following SCF stimulation [5]: strongly phosphorylated
c-Kit tyrosine phosphorylation following SCF stimulation [6]: strongly phosphorylated
B1: rmSCF: Recombinant mouse SCF (rmSCF) (R&D systems) (protein)
chain: KEICGNPVTDNVKDITKLVANLPNDYMITLNYVAGMDVLPSHCWLRDMVIQLSLSLTTLLDKFSNISEGLSNYSIIDKLGKIVDDLVLCMEENAPKNIKESPKRPETRSFTPEEFFSIFNRSIDAFKDFMVASDTSDCVLSSTLGPEKDSRVSVTKPFMLPPVA
lowest SCF concentration with statistically significant increase in cell migration [7]: 5 ng/mL
NSPC migration ([7]; rmSCF 5-500 ng/ml, 4 hours): stimulated in a dose-dependent manner; also recorded: significant chemoattractive effect on NSPC in a dose dependent manner
lowest SCF concentration with statistically significant increase in cell migration [8]: 10 ng/mL
NSPC migration ([8]; rmSCF 5-500 ng/ml, 4 hours): stimulated in a dose-dependent manner; also recorded: significant chemoattractive effect on NSPC in a dose dependent manner
migration of NIH 3T3 cells [9]: did not induce migration
number of BrdU-positive cells in SCF-injected area (1.5-mm^2 section) compared to the contralateral side [10, 13]: approximately twice
number of BrdU-positive cells in injected area, SCF-treated compared to PBS-treated animals [10, 13]: 2.3 times
BrdU-positive cells in the SCF-injected area ([10]; vs contralateral side and PBS-injected animals, day 7): significant numbers of BrdU-positive cells
blood vessel formation within the matrigel plug (H&E) [11]: obviously abundant
lowest concentration at which bMVEC-B responded to SCF stimulation [12]: 1 ng/mL
bMVEC-B DNA synthesis (thymidine incorporation) ([12]; rmSCF 1 ng/ml to 250 ng/ml): strongly stimulated bMVEC-B DNA synthesis
